Measurements taken from patent US20210292392A1 (TSB THERAPEUTICS BEIJING, published 2021).
Substitutions are numbered along the chain they refer to. Numbers in names are those of the source.

B1: P2A-1A9 (antibody, V domains shown)
VH: EVQLVESGGGLVQPGRSLRLSCAASGFTFDDYAMHWVRQVPGKGLEWVSGISWNGGIIGYADSVKGRFTISRDNAKTSLYLQMNSLRAEDTALYYCAKVAGRGDYDYYYGMDVWGQGTTVTVSS
VL: QSVLTQPPSVSGAPGQRVTISCTGSSSNIGAGYDVHWYQQLPGTAPKLLIYGNNNRPSGVPDRFSGSKSGTSASLAITGLQAEDEADYYCQSYDSSLSGSVFGGGTKLTVLG
B2: P2B-2G11 (antibody, V domains shown)
VH: B1 VH with V40A, R87K, A88P
VL: B1 VL
B3: P2A-1B3 (antibody, V domains shown)
VH: EVQLVESGGGLVQPGGSLRLSCVASGFSFNRYSMNWLRQTPRKGLEWLSYISASGNTIYYADSVRGRFTTSRDNAKNTLYLQMNSLRDDDTAVYFCARPAMVREGTYNWFDPWGQGTLVTVSS
VL: EIVLTQSPGTLSLSPGERATLSCRASQSVSNDYLAWYQQKPGQAPRLLIYYASSRATGIPDRFSGSGSGTDFTLTISRLEPGDSAVYYCQQYGDSPPITFGQGTRLEIKR
B4: P2B-2G4 (antibody, V domains shown)
VH: QVQLVESGGGVVQPGRSLRLSCAASGFTFSSYGMHWVRQAPGKGLEWVAVIWYDGSNKYYADSVKGRFTISRDNSKNTLYLQMNSLRAEDTAVYYCARGAAMVWLDYWGQGTLVTVSS
VL: QSALTQPRSVSGSPGQSVTISCTGTSSDVGGYNYVSWYQQHPGKAPKLMIYDVSKRPSGVPDRFSGSKSGNTASLTISGLQAEDEADYYCCSYAGSYTFVVFGGGTKLTVLG
B5: P5A-1D2 (antibody, human IgG1, lambda, V domains shown)
VH: EVQLVESGGGLIQPGGSLRLSCAASGFIVSSNYMSWVRQAPGKGLEWVSIIYSGGSTYYADSVKGRFTISRDNSNNTLYLQMNSLRAEDTAVYYCARALQVGATSDYFDYWGQGTLVTVSS
VL: B1 VL with N54S, A86T, Y93C, G99V, S100V
B6: P5A-1B8 (antibody, human IgG1, kappa, V domains shown)
VH: EVQLVESGGGLIQPGGSLRLSCAASGFTVSSNYMSWVRQAPGKGLEWVSVIYPGGSTFYADSVKGRFTISRDNSKNTLYLQMNSLRAEDTAVYYCARETLAFDYWGQGTLVTVSS
VL: DIQLTQSPSFLSASVGDRVTITCRASQGISSYLAWYQQKPGKAPKLLIYAASTLQSGVPSRFSGSGSGTEFTLTISSLQPEDFATYYCQQLNSYPPAFGGGTKVEIKR
B7: P5A-3C12 (antibody, human IgG1, kappa, V domains shown)
VH: QITLKESGPTLVKPTQTLTLTCTFSGFSLSTSGVGVGWIRQPPGKALEWLALIYWDDDKRYSPSLKSRLTITKDTSKNQVVLTMTNMDPVDTATYYCAHSLFLTVGYSSSWSPFDYWGQGTLVTVSS
VL: not shown
B8: P5A-2G9 (antibody, human IgG1, lambda, V domains shown)
VH: QVQLVESGGGVVQPGRSLRLSCAASGFTFSSYGMHWVRQAPGKGLEWVAVIWYDGSNKYYADSVKGRFTISRDNSKNTLYLQMNSLRAEDTAVYYCARWFHTGGYFDYWGQGTLVTVSS
VL: QPVLTQPPSSSASPGESARLTCTLPSDINVSSYNIYWYQQKPGSPPRYLLYYYSDSDKGQGSGVPSRFSGSKDASANTGILLISGLQSEDEADYYCMIWPSNALYVFGTGTKVTVLG
B9: P5A-2G7 (antibody, human IgG1, lambda, V domains shown)
VH: QVQLQESGPGLVKPSETLSLTCTVSGDSVSSGSYYWSWIRQPPGKGLEWIGYIYYSGSTNYNPSLKSRVTISVDTSKNQFSLKLSSVTAADTAVYYCARERCYYGSGRAPRCVWFDPWGQGTLVTVSS
VL: B4 VL with R8A, V18I, K55N, P61S, D62N, C91S, A94T, G95S, Y97S, F99L
B10: P5A-3C8 (antibody, human IgG1, kappa, V domains shown)
VH: EVQLVESGGGLIQPGGSLRLSCAASGFTVSSNYMSWVRQAPGKGLEWVSFIYSGGSTYYADSVKGRFTISRDNSKNTLYLQMNSLRAEDTAVYYCARDLQEHGMDVWGQGTTVTVSS
VL: DIQLTQSPSSLSASVGDRVTITCRASQGISSYLAWYQQKPGKAPKLLIYAASTLQSGVPSRFSGSGSGTDFTLTISSLQPEDFATYYCQHLNSYPPGYTFGQGTKLEIKR
B11: P22A-1D1 (antibody, human IgG1, kappa, V domains shown)
VH: B10 VH with F50V, L99R, Q100D, E101Y, H102Y
VL: DIQLTQSPSFLSASVGDRVTITCRASQGISSYLAWYQQKPGKAPKLLIYAASTLQSGVPSRFSGSGSGTEFTLTISSLQPEDFATYYCLHLNSYRTFGLGTKVEIKR
B12: P2B-1A10 (antibody, human IgG1, kappa, V domains shown)
VH: EVQLVESGGGLIQPGGSLRLSCAASGFTVSSNYMSWVRQAPGKGLEWVSVIYSGGSTYYADSVKGRFTISRDNSKNTLYLQMNSLRAEDTAVYYCAREGPKSITGTAFDIWGQGTIVTVSS
VL: DIQMTQSPSSLSASVGDRVTITCQASQDISNYFNWYQQKPGKAPKLLIYDASNLETGVPSRFSGSGSGTDFTFTISSLQPEDIATYYCQQYDNLPMYTFGQGTKLEIKR
B13: P2B-1D9 (antibody, human IgG1, lambda, V domains shown)
VH: QITLKESGPTLVKPTQTLTLTCTFSGFSLSTSGVGVGWIRQPPGKALEWLALIYWDDDKYYSPSLKSRLTITKDTSKNQVVLTMTNMDPVDTATYYCAHTRILYYGSGSYYDYWGQGTLVTVSS
VL: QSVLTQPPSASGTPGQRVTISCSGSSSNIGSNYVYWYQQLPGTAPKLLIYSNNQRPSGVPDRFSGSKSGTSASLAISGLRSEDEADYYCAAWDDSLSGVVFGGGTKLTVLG
B14: P2B-1E4 (antibody, human IgG1, lambda, V domains shown)
VH: QITLKESGPTLVKPTQTLTLTCTFSGFSLSTSGVGVGWIRQPPGKALEWLALIYWDDDKRYSPSLKSRLTITKDTSKNQVVLTMTNMDPVDTATYYCAHQIVATIIDYWGQGTLVTVSS
VL: QSALTQPASVSGSPGQSITISCTGTSSDVGGYNYVSWYQQHPGKAPKLMIYDVSKRPSGVSNRFSGSKSGNTASLTISGLQAEDEADYYCSSYTSSSVVFGGGTKLTVLG
B15: P2B-1A1 (antibody, human IgG1, lambda, V domains shown)
VH: QVQLQESGPGLVKPSETLSLTCTVSGGSISSYYWSWIRQPPGKGLEWIGYIYYSGSTNYNPSLKSRVTISVDTSKKQFSLKLSSVTAADTAVYYCARLERDWPLDAFDIWGQGTMVTVSS
VL: QSALTQPASVSGSPGQSITISCTGTSSDVGGYNYVSWYQQHPGKAPKFMIYDVSKRPSGVSNRFSGSKSGNTASLTISGLQAEDEADYYCSSYTSNNTFAFGGGTKLTVLG
B16: P2B-1A10 (antibody, human IgG1, kappa, V domains shown)
VH: B12 VH
VL: B12 VL
B17: P2A-1B3 (antibody, V domains shown)
VH: B3 VH
VL: B3 VL

Biological target: T1, full length spike (S) protein of SARS-CoV-2 (SARS-CoV-2, UniProt P0DTC2 14-1273)
Test: cell-based or functional assay

Binder	IC50, pseudovirus neutralization [µg/mL]	Neutralizing activity (%) Mean at 0.0228624 µg/ml [%]	Neutralizing activity (%) Mean at 0.0685871 µg/ml [%]	Neutralizing activity (%) Mean at 0.2057613 µg/ml [%]	Neutralizing activity (%) Mean at 0.6172839 µg/ml [%]	Neutralizing activity (%) Mean at 1.851852 µg/ml [%]	Neutralizing activity (%) Mean at 5.555555 µg/ml [%]	Neutralizing activity (%) Mean at 16.66667 µg/ml [%]	Neutralizing activity (%) Mean at 50 µg/ml [%]
B1	26.3	12.5	15.9	15.1	14.3	15.9	34.8	41.2	62.6
B2	34.8	3.81	13.9	12.8	–	16	19	25.9	64.4
B3	16.8	11.5	-0.545	10.2	23.3	22.1	37.2	43.6	74.9
B4	5.11	-3.33	-8.88	10.4	20.2	35.4	46.4	65.2	74.8

Biological target: receptor-binding domain (RBD) of the spike protein of SARS-CoV-2 (SARS-CoV-2, UniProt P0DTC2 319-541)
Test: not given

Binder	Kd [nM]
B5	14
B6	4.28
B7	8.47
B8	15.9
B9	3.95
B10	1.3
B11	5.79
B12	38.4

Biological target: T1, full length spike (S) protein of …
Test: cell-based or functional assay
Remark: another data set of the same source

Binder	IC50, pseudovirus neutralization [µg/mL]
B13	3.12
B14	5.96
B15	0.687
B16	0.349

Biological target: full length spike (S) protein of SARS-CoV-2 on pseudovirus (SARS-CoV-2, UniProt P0DTC2 14-1273)
Test: cell-based or functional assay

Binder	Pseudovirus IC50 [µg/mL]	Pseudovirus IC80 [µg/mL]
B17	16.8	> 50
